Assay results published in IntAct's records for PubMed 18971339.

B1: Interferon-induced, double-stranded RNA-activated protein kinase (Homo sapiens), P19525 (parent)
chain: MAGDLSAGFFMEELNTYRQKQGVVLKYQELPNSGPPHDRRFTFQVIIDGREFPEGEGRSKKEAKNAAAKLAVEILNKEKKAVSPLLLTTTNSSEGLSMGNYIGLINRIAQKKRLTVNYEQCASGVHGPEGFHYKCKMGQKEYSIGTGSTKQEAKQLAAKLAYLQILSEETSVKSDYLSSGSFATTCESQSNSLVTSTLASESSSEGDFSADTSEINSNSDSLNSSSLLMNGLRNNQRKAKRSLAPRFDLPDMKETKYTVDKRFGMDFKEIELIGSGGFGQVFKAKHRIDGKTYVIKRVKYNNEKAEREVKALAKLDHVNIVHYNGCWDGFDYDPETSDDSLESSDYDPENSKNSSRSKTKCLFIQMEFCDKGTLEQWIEKRRGEKLDKVLALELFEQITKGVDYIHSKKLIHRDLKPSNIFLVDTKQVKIGDFGLVTSLKNDGKRTRSKGTLRYMSPEQISSQDYGKEVDLYALGLILAELLHVCDTAFETSKFFTDLRDGIISDIFDKKEKTLLQKLLSKKPEDRPNTSEILRTLTVWKKSPEKNERHTC
partner: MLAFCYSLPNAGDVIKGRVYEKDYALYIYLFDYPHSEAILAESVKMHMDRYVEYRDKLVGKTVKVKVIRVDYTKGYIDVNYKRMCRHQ

Variants of: B1
Settings: with pg041_vaccc OPG041, P20639

Variant | effect of a mutation on the interaction
D486V | decreasing interaction strength
